Starred links: 1 amine or outer side, 2 acyl side, 3 side chain; linkers in the order of their positions; H or OH if unused. Positions of bridges follow the written chain, without caps; N, C: chain ends. Non-standard residues stand in square brackets, D forms with d. Primed or numbered codes have the meaning given here. PyrS2″ = (S)-3-amino-1-((pent-4-en-1-yloxy)carbonyl)pyrrolidine-3-carboxylic acid (stapling residue), C=CCCCOC(=O)N1CC[C@@](N[*:1])(C(=O)[*:2])C1; B5(16) = 2-amino-2-(pent-4-en-1-yl)hept-6-enoic acid = 2,2-bis(4-pentenyl)glycine (stitching residue), C=CCCCC(CCCC=C)(N[*:1])C(=O)[*:2]; B5(4) = 2,2-bis(4-pentenyl)glycine = 2-amino-2-(pent-4-en-1-yl)hept-6-enoic acid (stitching residue), C=CCCCC(CCCC=C)(N[*:1])C(=O)[*:2]; TfeGA = (S)-2-amino-3-((carboxymethyl)(2,2,2-trifluoroethyl)amino)propanoic acid, O=C([C@H](CN(CC(=O)[*:3])CC(F)(F)F)N[*:1])[*:2]; PyrS2 = (S)-3-amino-1-((pent-4-en-1-yloxy)carbonyl)pyrrolidine-3-carboxylic acid, C=CCCCOC(=O)N1CC[C@@](N[*:1])(C(=O)[*:2])C1; PyrS2(5) = (S)-3-amino-1-((alkenyloxy)carbonyl)pyrrolidine-3-carboxylic acid, carbamate stapling residue; B5(3) = 2,2-bis(4-pentenyl)glycine (stitching residue), C=CCCCC(CCCC=C)(N[*:1])C(=O)[*:2]; Phe(3-COOH) = N[C@@H](Cc1cccc(C(=O)O)c1)C(=O)O; Phe(2-CF3) = N[C@@H](Cc1ccccc1C(F)(F)F)C(=O)O; Phe(2-Cl) = N[C@@H](Cc1ccccc1Cl)C(=O)O; Bta = N[C@@H](Cc1csc2ccccc12)C(=O)O; αAllylPro = C=CC[C@@]1(C(=O)O)CCCN1; tBuAla = CC(C)(C)C[C@H](N)C(=O)O; S8 = C=CCCCCCC[C@](C)(N)C(=O)O; PyrS2(4) = not defined here; Leu(ol) = CC(C)C[C@H](N)CO; hSer = N[C@@H](CCO)C(=O)O; Nle = CCCC[C@H](N)C(=O)O
Legend:
Assay in all cases: cell-based or functional assay
B-cat-Halo [1] = molecular target: T1, B-cat-Halo (UniProt P35222 1-781)
T1 sequence (looked up): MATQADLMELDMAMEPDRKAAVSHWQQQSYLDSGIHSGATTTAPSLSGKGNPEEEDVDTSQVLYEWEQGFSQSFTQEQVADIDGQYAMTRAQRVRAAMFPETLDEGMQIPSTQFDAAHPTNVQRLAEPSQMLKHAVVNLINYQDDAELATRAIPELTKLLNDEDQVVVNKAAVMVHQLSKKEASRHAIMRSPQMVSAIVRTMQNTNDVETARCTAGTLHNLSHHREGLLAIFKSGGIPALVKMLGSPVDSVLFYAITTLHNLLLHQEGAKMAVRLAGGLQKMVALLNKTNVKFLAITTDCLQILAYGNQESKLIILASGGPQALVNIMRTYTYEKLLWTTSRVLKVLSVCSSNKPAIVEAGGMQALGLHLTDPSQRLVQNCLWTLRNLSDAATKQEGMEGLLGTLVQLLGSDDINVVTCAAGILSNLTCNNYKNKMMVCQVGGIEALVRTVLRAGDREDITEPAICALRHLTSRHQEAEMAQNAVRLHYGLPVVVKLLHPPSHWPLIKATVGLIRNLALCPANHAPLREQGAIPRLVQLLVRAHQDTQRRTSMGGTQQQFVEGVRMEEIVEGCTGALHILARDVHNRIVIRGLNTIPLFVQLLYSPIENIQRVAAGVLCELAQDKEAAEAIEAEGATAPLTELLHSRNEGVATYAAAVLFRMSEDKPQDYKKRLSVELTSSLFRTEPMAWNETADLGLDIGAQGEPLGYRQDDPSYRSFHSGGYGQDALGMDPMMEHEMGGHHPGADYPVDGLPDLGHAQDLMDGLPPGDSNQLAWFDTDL

[2] = molecular target: T2, beta-catenin in DLD1 TCF/LEF luciferase reporter cells (UniProt P35222 1-781)
T2 sequence (looked up): T1 sequence (looked up)

[3] = molecular target: T3, beta-catenin in DLD1 TCF/LEF luciferase reporter cells (UniProt P35222 1-781); remark: listed apart in the source
T3 sequence (looked up): T1 sequence (looked up)

B-cat-Halo [4] = molecular target: T4, B-cat-Halo (UniProt P35222 1-781); remark: listed apart in the source
T4 sequence (looked up): T1 sequence (looked up)

[5] = molecular target: T5, beta-catenin in DLD1 TCF/LEF luciferase reporter cells (UniProt P35222 1-781); remark: listed apart in the source
T5 sequence (looked up): T1 sequence (looked up)

[6] = molecular target: T6, beta-catenin in DLD1 TCF/LEF luciferase reporter cells (UniProt P35222 2-781)
T6 sequence (looked up): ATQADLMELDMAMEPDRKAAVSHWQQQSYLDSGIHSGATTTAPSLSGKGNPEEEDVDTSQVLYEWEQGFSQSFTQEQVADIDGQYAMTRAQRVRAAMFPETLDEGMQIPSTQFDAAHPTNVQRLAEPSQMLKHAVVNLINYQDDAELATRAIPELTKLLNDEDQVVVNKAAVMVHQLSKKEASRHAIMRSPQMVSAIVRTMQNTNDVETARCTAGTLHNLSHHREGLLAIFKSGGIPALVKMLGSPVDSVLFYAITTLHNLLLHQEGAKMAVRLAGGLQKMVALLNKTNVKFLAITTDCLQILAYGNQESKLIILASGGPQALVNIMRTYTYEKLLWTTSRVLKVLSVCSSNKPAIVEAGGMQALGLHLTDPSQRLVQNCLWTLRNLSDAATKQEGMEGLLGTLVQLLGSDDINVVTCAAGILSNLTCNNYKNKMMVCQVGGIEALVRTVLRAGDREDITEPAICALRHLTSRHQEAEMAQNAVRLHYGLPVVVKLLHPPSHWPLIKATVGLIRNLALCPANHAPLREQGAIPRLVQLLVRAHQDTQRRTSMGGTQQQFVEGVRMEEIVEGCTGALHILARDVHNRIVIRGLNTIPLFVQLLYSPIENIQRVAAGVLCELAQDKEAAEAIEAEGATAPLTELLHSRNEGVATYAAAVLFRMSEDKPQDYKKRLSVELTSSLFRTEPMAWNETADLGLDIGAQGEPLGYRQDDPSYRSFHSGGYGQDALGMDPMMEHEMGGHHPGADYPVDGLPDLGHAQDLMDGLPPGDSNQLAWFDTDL

[7] = molecular target: T7, B-cat-Halo (beta-catenin HaloTag NanoBRET construct expressed in HEK293 cells) (UniProt P35222 2-781)
T7 sequence (looked up): T6 sequence (looked up)

[8] = molecular target: T8, beta-catenin in DLD1 TCF/LEF luciferase reporter cells (UniProt P35222 1-781); remark: listed apart in the source
T8 sequence (looked up): T1 sequence (looked up)

[9] = molecular target: T9, B-cat-Halo (beta-catenin HaloTag construct expressed in HEK293 cells) (UniProt P35222 1-781)
T9 sequence (looked up): T1 sequence (looked up)

Ac-[αAllylPro]D[tBuAla][B5(4)]DDAAFF[PyrS2″][Phe(2-CF3)][Bta]Q-NH2 (staple 1-4, 4-11) [I-1319] was tested, and the “NanoBRET Abs IC50” value (B-cat-Halo [1]) was 4.2 µM and the “DLD1 4% Abs IC50” value [2] was 2.1 µM.

B1: I-1684 (peptide)
peptide: Ac-[αAllylPro]D[tBuAla][B5(16)]D[Phe(3-COOH)]GAFL[PyrS2(4)][Phe(2-Cl)][Bta]Q-NH2
modifications: staple 1-4, 4-11; not fully specified; printed as Ac-PL3-Asp-Npg-B5-Asp-3COOHF-Gly-Ala-Phe-Leu-PyrS2-2C1F-BztA-Gln-NH2; reading uncertain
For B1, the “DLD1 4% Abs IC50” value [3] was 3.4 µM.

With Ac-[αAllylPro]D[tBuAla][B5(3)]D[TfeGA]AAF[hSer][S8][Phe(2-Cl)][Bta]Q-NH2 (staple 1-4, 4-11) [I-996] the “NanoBRET Abs IC50” value (B-cat-Halo [4]) was 11.3 µM and the “DLD1 4% Abs IC50” value [5] was 3.6 µM.

With Ac-[αAllylPro]D[tBuAla][B5(4)]DDAAFL[PyrS2″][Phe(2-CF3)][Bta]Q-NH2 (staple 1-4, 4-11) [I-1318] the “NanoBRET Abs IC50” value (B-cat-Halo [1]) was 4.8 µM and the “DLD1 4% Abs IC50” value [2] was 3.9 µM.

With Ac-[αAllylPro]D[tBuAla][B5(16)]D[Phe(3-COOH)][Nle]AFL[PyrS2(5)][Phe(2-Cl)][Bta]Q-NH2 (staple 1-4, 4-11) [I-1685] the “DLD1 4% Abs IC50” value [3] was 1.3 µM.

For Ac-[αAllylPro]D[tBuAla][B5(3)]D[TfeGA]AAF[hSer][PyrS2″][Phe(2-Cl)][Bta][hSer]-NH2 (staple 1-4, 4-11) [I-993], the “NanoBRET Abs IC50” value (B-cat-Halo [4]) was 4.9 µM and the “DLD1 4% Abs IC50” value [5] was 1.8 µM.

With Ac-[αAllylPro]D[tBuAla][B5(4)]DDAAFN[PyrS2″][Phe(2-Cl)][Bta][Leu(ol)] (staple 1-4, 4-11) [I-1080] the “DLD1 4% Abs IC50” value [6] was 10.4 µM and the “NanoBRET Abs IC50” value [7] was > 20 µM.

B2: I-2521 (peptide)
peptide: Ac-[αAllylPro]D[tBuAla][B5(4)]DXAAFL[PyrS2][Phe(2-CF3)][Bta]S-NH2
modifications: staple 1-4, 4-11; not fully specified (residue 6); printed as Ac-PL3-Asp-Npg-B5-Asp-[CH2CChCO2H]TriAzDap-Ala-Ala-Phe-Leu-PyrS2-2F3MeF-BztA-Ser-NH2
B2 was tested, and the “DLD1 4% Abs IC50 (uM); TCF/LEF luciferase reporter assay” value [8] was 3 µM and the “NanoBRET Abs IC50 (uM); Bcat-Halo / TCF4-Luc in HEK293 cells” value [9] was 5.6 µM.

B3: I-2520 (peptide)
peptide: Ac-[αAllylPro]D[tBuAla][B5(4)]DXQAFL[PyrS2][Phe(2-CF3)][Bta]A-NH2
modifications: staple 1-4, 4-11; not fully specified (residue 6); printed as Ac-PL3-Asp-Npg-B5-Asp-[CH2CChCO2H]TriAzDap-Gln-Ala-Phe-Leu-PyrS2-2F3MeF-BztA-Ala-NH2
B3 was tested, and the “DLD1 4% Abs IC50 (uM); TCF/LEF luciferase reporter assay” value [8] was 5.7 µM and the “NanoBRET Abs IC50 (uM); Bcat-Halo / TCF4-Luc in HEK293 cells” value [9] was 5.9 µM.
